Experimental findings from paper PMC7913109 are described below.

The test deals with Gluc2-VP3 BTV8 (pSPICA-N2-VP3 BTV8). The test is described as follows: split reporter (BiFC, NanoBiT).

For “Gluc1-MAVS (pSPICA-N1 human MAVS) (from UniProt Q7Z434 1-540) (natural protein)”, the NLR (normalized luminescence ratio) turned out to be 17.4.

B1: Gluc1-IKKε (pSPICA-N1 human IKKε) (natural protein)
chain: MQSTANYLWHTDDLLGQGATASVYKARNKKSGELVAVKVFNTTSYLRPREVQVREFEVLRKLNHQNIVKLFAVEETGGSRQKVLVMEYCSSGSLLSVLESPENAFGLPEDEFLVVLRCVVAGMNHLRENGIVHRDIKPGNIMRLVGEEGQSIYKLTDFGAARELDDDEKFVSVYGTEEYLHPDMYERAVLRKPQQKAFGVTVDLWSIGVTLYHAATGSLPFIPFGGPRRNKEIMYRITTEKPAGAIAGAQRRENGPLEWSYTLPITCQLSLGLQSQLVPILANILEVEQAKCWGFDQFFAETSDILQRVVVHVFSLSQAVLHHIYIHAHNTIAIFQEAVHKQTSVAPRHQEYLFEGHLCVLEPSVSAQHIAHTTASSPLTLFSTAIPKGLAFRDPALDVPKFVPKVDLQADYNTAKGVLGAGYQALRLARALLDGQELMFRGLHWVMEVLQATCRRTLEVARTSLLYLSSSLGTERFSSVAGTPEIQELKAAAELRSRLRTLAEVLSRCSQNITETQESLSSLNRELVKSRDQVHEDRSIQQIQCCLDKMNFIYKQFKKSRMRPGLGYNEEQIHKLDKVNFSHLAKRLLQVFQEECVQKYQASLVTHGKRMRVVHETRNHLRLVGCSVAACNTEAQGVQESLSKLLEELSHQLLQDRAKGAQASPPPIAPYPSPTRKDLLLHMQELCEGMKLLASDLLDNNRIIERLNRVPAPPDV
For the molecule B1, the NLR (normalized luminescence ratio) came out at 17.7.
